Data from PMC9357639.

Experiments:
[1] = target: STAT3 (UniProt P40763); assay: size exclusion chromatography, fractions immunoblotted; settings: sites T622
[2] = target: STAT3 (UniProt P40763); assay: anti-Flag IP of purified Flag-STAT3 and GST-STAT3; settings: reference: wild type GST- and Flag-STAT3; sites T622
[3] = target: STAT3 (UniProt P40763); assay: anti-Flag co-IP, Flag-STAT3 with HA-STAT3; settings: reference: wild type STAT3; sites T622

STAT3, sequence (P40763 whole entry, stated change not applied): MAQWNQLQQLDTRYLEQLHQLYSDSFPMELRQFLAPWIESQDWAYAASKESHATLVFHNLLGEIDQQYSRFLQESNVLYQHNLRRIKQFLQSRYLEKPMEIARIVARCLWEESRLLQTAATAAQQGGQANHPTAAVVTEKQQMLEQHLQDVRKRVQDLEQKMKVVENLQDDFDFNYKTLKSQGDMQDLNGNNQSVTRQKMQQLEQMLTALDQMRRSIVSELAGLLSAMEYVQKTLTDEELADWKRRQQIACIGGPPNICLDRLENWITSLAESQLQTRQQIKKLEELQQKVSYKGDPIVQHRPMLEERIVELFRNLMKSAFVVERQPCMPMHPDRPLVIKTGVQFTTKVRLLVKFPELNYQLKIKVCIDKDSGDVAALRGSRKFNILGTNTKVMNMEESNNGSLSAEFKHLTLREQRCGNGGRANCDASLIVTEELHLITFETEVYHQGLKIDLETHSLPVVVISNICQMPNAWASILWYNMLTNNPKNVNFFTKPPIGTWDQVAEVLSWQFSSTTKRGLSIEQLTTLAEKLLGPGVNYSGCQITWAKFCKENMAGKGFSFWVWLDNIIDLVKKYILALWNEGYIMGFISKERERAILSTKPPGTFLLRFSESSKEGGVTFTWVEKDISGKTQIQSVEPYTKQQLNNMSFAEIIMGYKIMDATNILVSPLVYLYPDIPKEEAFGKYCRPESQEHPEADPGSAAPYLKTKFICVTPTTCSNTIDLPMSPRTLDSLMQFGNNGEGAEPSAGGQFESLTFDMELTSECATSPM

Substance: STAT3 (from UniProt P40763) Flag-STAT3 T622A
- binding against the reference ([1]; reference: wild type Flag-STAT3): stronger

Substance: STAT3 (from UniProt P40763) His-MST2 treated
- binding against the reference ([1]; reference: untreated WT Flag-STAT3): same

Substance: STAT3 (from UniProt P40763) T622A GST- and Flag-STAT3
- binding against the reference [2]: stronger

Substance: STAT3 (from UniProt P40763) STAT3 T622A
- binding against the reference [3]: stronger
